Legend:
[1] = tested on: Neuro2a cells stably transfected with hyg-sa134 (SEAP-APP); assay: Aβ production by Neuro2a cells stably transfected with hyg-sa134 (total Aβ in media, sandwich ELISA); type: cell-based, mouse
Procedure: Neuro2a (mouse neuroblastoma) stably transfected with hyg-sa134, a pcDNA3.1/Hygro plasmid (Invitrogen, CA) modified to express a fusion protein of secreted alkaline phosphatase (SEAP) and a fragment of APP consisting of the C-terminal 134 amino acids (“CAPP134”) (SEQ ID NO:10) were maintained in culture as described ([…]) in the presence of 400 μg/ml of hygromycin. SEQ ID NO: 11 is the DNA sequence of the entire hygsa134 vector, which was derived from the pcDNA3.1/Hygro vector by genetic manipulation to insert the DNA sequences for SEAP and CAPP134. The SEAP-CAPP cDNA insert from hyg-sa134 was also subcloned into an adenoviral vector using the Adeno Vator system (Qbiogene, Calif.). The DNA sequence for SEAP (corresponding to nucleotides 981-2441 of hyg-sa134) (SEQ ID NO: 9) is located 5′ to the DNA sequence (SEQ ID NO: 12) coding for CAPP134 (SEQ ID NO: 10).
SY5Y and hyg-sa134-Neuro2a cells were treated at 80% confluency (see below). Primary neural cultures from mouse embryos were allowed to grow for 6-12 days following plating and prior to viral infection and treatments.
About 5 μg/ml or about 10 μg/ml water-soluble cholesterol was added to cultures for 2 or 5 hours. Water soluble cholesterol (Sigma-Aldrich, MO) is a solution made of cholesterol balanced with cyclodextrin CDX (40 mg cholesterol per gr CDX). For comparison, cultures were treated with the equivalent amount of the resin alone, which leads to depletion of cholesterol in the cultures (Simons et al., Proc Natl Acad Sci USA. 95:6460-4 (1998)).
About 100 ng/ml or about 400 ng/ml leptin (Harbor-UCLA, CA), was added in cell culture medium for 2 or 5 h. Cells were approximately 80% confluent at the time of treatment. Peptide YY (3-36) (Phoenix Pharmaceuticals, Inc., CA), and CNTF (Sigma-Aldrich, Mo.) were added at about 25 μM or 150 μM for the same incubation periods. TOFA, etomoxir (Research Biochemicals International, MA) and cerulenin (Sigma-Aldrich, Mo.) were used as described below.
For the determination of Aβ peptide several methodologies also were used. SY5Y cells in culture were metabolically labeled with ^35S-[Met] as described (Figueiredo-Pereira et al. J Neurochem. 72:1417-22 (1999)), followed by immunoprecipitation, resolution of the immunoprecipitates on SDS-PAGE, autoradiography, and densitometric analysis of the autoradiogram. Neuro2a cells were stably transfected with hyg-sa134 (K. Sambamurti, S. Carolina Medical Center, SC) and Aβ40 (SEQ ID NO: 4) plus Aβ42 (SEQ ID NO: 5) plus Aβ43 (SEQ ID NO: 6) (Total Aβ) in the medium then was quantified by sandwich ELISAs developed with 4G8 and 6 ε10 monoclonal antibodies (Signet, Mass.) as described (Figueiredo-Pereira et al., J Neurochem. 72:1417-22 (1999)). Commercially available ELISA kits (KMI Diagnostics, MN) were used for the separate determination of Aβ40 (SEQ ID NO:4) and Aβ42/43 (SEQ ID NO:5/SEQ ID NO:6) in formic acid extracts of mice brains. Flotillin was detected using monoclonal anti-flotillin-1 antibodies (BD Biosciences, CA). Actin was detected using monoclonal anti-actin antibodies (Research Diagnostics, Inc, NJ).
Human (SYSY) or mouse neuroblastoma cell-lines (Neuro2a) commonly are used to study amyloid β metabolism in vitro. Neuro2a cells are stably transfected with hyg-sa134 (SEQ ID NO: 11), a plasmid driving the expression of a recombinant fusion protein containing the human C-terminal fragment of APP of about 134 amino acids, CAPP134 (SEQ ID NO: 10). Here, 5Y5Y or Neuro2a cultures were treated for 2 or 5 h with about 100 ng/ml or about 400 ng/ml leptin (FIG. 4a, 4b). Similarly, primary neurons from embryonic rat brain, infected with an adenovirus to direct the expression of CAPP134 (SEQ ID NO:10) also were treated according to the same regimen. […]

astrocytes = assay: Filipin staining of astrocytes; type: cell-based, rat; settings: about 5 h
Procedure: Leptin was detected using a rabbit polyclonal antibody raised against mouse leptin, corss-reacting with human leptin (obtained from Dr. A. F. Parlow, Harbor-UCLA, CA). Immunofluorescent confocal microscopy was performed on 2% paraformaldehyde-fixed primary neural cells. Filipin staining was performed as described (Feng et al., Nat Cell Biol. 5:781-92 (2003)).
Neural cultures from ε15 rat cerebral cortex were processed for enrichment of neurons (a-d) or astrocytes (e-h) as described (Takeshima et al., J. Neurosci. Methods 67: 27-41 (1996)). After about 7 days to about 10 days in culture, cultures were treated for about 5 h with about 10 μg/ml cholesterol (b, f) or about 400 ng/ml leptin plus cholesterol (c, g) or leptin alone (d, h). Controls (a, e) were treated with culture media alone. Filipin staining was performed as described (Feng et al., Nat. Cell Biol. 5: 781-92 (2003)). Neurons (i-k) and astrocytes (l-n) prepared as above were treated with 0 μM (i, l), 5 μM (j, m) or 10 μM cholesterol (k, n) for 5 h. Immunostaining was performed for leptin (A.F.Parlow, Harbor-UCLA, CA).

B1: Leptin: peptide hormone controlling adaptive metabolic mechanisms to energy availability; leptin (Harbor-UCLA) in vitro, recombinant murine leptin in mice (protein, UniProt P41160 22-167, looked up)
Leptin: VPIQKVQDDTKTLIKTIVTRINDISHTQSVSAKQRVTGLDFIPGLHPILSLSKMDQTLAVYQQVLTSLPSQNVLQIANDLENLRDLLHLLAFSKSCSLPQTSGLQKPESLDGVLEASLYSTEVVALSRLQGSLQDILQQLDVSPEC
- Aβ production / levels of Aβ in the media (in words) ([1]; 2 or 5 h treatment): dose- and time-dependent decrease
- levels of Aβ detected in the media (percentage of corresponding controls), leptin co-administered with cholesterol ([1]; 5 h, highest concentrations of leptin, co-administered with cholesterol, FIG. 4b): 150±4%
- Neuro2a/SEAP-APP Aβ(% control) ([1]; total Aβ in conditioned media, 5 h, concentration (TOFA 200 μM, cerulenin 200 μM, etomoxir 40 μM, peptide YY (3-36) 25 μM, CNTF 25 μM, leptin 400 ng/ml), mean ± SEM, 4 experiments, NS = non-significant): 56 ± 5 % control
- filipin labelling (astrocytes; about 400 ng/ml leptin): diminished filipin labelling
- increase in filipin labelling by cholesterol (astrocytes; leptin about 400 ng/ml plus cholesterol about 10 μg/ml): prohibited an increase

— patent US8227408B2, “Leptin as an anti-amyloidogenic biologic and methods for delaying the onset and reducing Alzheimer's disease-like pathology” (Neurotez, Inc., priority 2005, dated 2012)
